According to patent publication US20240156865A1 (BIONOXX, published 2024):
Read-outs that look alike come from different tables or passages of the source.

T1: A56-C-His (recombinant protein A56 with C-terminal His tag, produced in HEK293F cells) (vaccinia virus, UniProt P08714 17-279)
T1 chain: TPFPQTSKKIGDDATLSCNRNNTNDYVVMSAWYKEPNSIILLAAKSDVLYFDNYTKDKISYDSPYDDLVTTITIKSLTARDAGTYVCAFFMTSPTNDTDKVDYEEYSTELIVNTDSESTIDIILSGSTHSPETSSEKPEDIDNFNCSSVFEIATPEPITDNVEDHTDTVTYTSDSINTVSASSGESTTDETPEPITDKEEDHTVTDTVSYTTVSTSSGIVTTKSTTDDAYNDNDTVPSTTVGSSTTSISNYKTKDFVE

B1: anti-A56 antibody Ab19 (antibody, V domains shown)
VH: QVQLVESGAEVRRPGSSVKVSCKTSGVTFSGYVLSWVRQAPGHGLEWMGRIIPLIDVENYAREFQGRMKITADKSTNTVYMELNNLRSEDTAVYYCAKSVVRGLDYYYYGFDVWGQGTTVTVSS
VL: SYELTQPPSLSVAPGKTARITCGGNNIGSKSVHWYQQKPGQAPRLVTYYDGNRPSGIPERFSGSNSGNTATLIISRVEAGDEADYYCQVWDSSSDQGVFGTGTKVTVL
notes: also called SA2044; A56-02C07
B2: anti-A56 antibody Ab18 (antibody, V domains shown)
VH: QVQLVESGGGLVQPGKSLRLSCAASGFTFSTYGMTWVRQAPGKGLEWVSGISGGGSSTNYADSVKGRFIISRDNSNNTLYLQMNSLRAEDTAVYYCARWGVMLSFDYWGQGTPVTVSS
VL: DIQMTQSPSTLPASVGDRVTITCRASYSVSPWLAWYQQKPGKAPKLLIYKASTLESGVPSRFSGSGSGTEFTLTISSLQPDDFATYYCQQFNSYMMYTFGQGTKLEIK
notes: also called SA2043; A56-02C06
B3: anti-A56 antibody Ab13 (antibody, V domains shown)
VH: QMQLVESGAEVKKTGSSVKVSCKASGDTLTYRFLHWVRQAPGQAPEWMGWITPFNDNTNYAQKFQDRVTITRDRSMSTAYMELSSLRSEDTAVYYCATGGGNNYYGMEVWGQGTPITVSS
VL: SYELTQPLSLSVSPGQTASITCSGDKLGDKFTSWYQQQPGQSPVLVIYQDAKRPSGIPERFSGSNSGSTATLTISGTQSMDEADYYCQAWDSSSVVFGGGTKLTVL
notes: also called SA2038; A56-02A02
B4: anti-A56 antibody Ab16 (antibody, V domains shown)
VH: QVQLQQSGPGLVKPSQTLSLTCAISGDSVSSNSAAWNWIRQSPSRGLEWLGRTYYRSKWYNDYAVSVKSRITINPDTSKNQFSLQLNSVTAVDTAVYYCAKSYAGPISYYYYGLDVWGQGTTVTVSS
VL: QSALTQPASVSGSPGQSVTISCTGTSSDIGRYNLVSWYQQHPGKAPKLMIYGGSKRPSGVSNRFSGSNSDNTASLTISGLRAEDEADYYCSSYASSSTPYVFGTGTKVTVL
notes: also called SA2041; A56-02B08
B5: anti-A56 antibody Ab01 (antibody, V domains shown)
VH: QMQLVQSGAEVKKPGSSVKVSCKASGGTFSSYAISWVRQAPGQGLEWMGGIIPIFGTANYAQKFQGRVTMTRDTSTSTVYMELSSLKSEDTAVYYCARFVFGSGTYLDSWGQGTLVTVSS
VL: not shown
notes: also called SA2026; A56-01A02

Columns and labels:
[1] = target: T1, A56-C-His (recombinant protein A56 with …)
[2] = target: T1, A56-C-His (recombinant protein A56 with …); assay: ELISA (row 'KD (M) by ELISA')
[3] = target: T1, A56-C-His (recombinant protein A56 with …); assay: ELISA on coated A56 (100 ng), fit; R square 0.9953
[4] = target: T1, A56-C-His (recombinant protein A56 with …); assay: OCTET (row 'KD (M) by OCTET'; the legend calls it SPR)
[5] = target: T1, A56-C-His (recombinant protein A56 with …)
[6] = target: T1, A56-C-His (recombinant protein A56 with …); assay: ELISA (row 'KD (M) by ELISA')
[7] = target: T1, A56-C-His (recombinant protein A56 with …); assay: ELISA on coated A56 (100 ng), fit; R square 0.9942
[8] = target: T1, A56-C-His (recombinant protein A56 with …); assay: OCTET (row 'KD (M) by OCTET'; the legend calls it SPR)
[9] = target: T1, A56-C-His (recombinant protein A56 with …); assay: ELISA (row 'KD (M) by ELISA')
[10] = target: T1, A56-C-His (recombinant protein A56 with …); assay: ELISA on coated A56 (100 ng), fit; R square 0.9274
[11] = target: T1, A56-C-His (recombinant protein A56 with …); assay: OCTET (row 'KD (M) by OCTET'; the legend calls it SPR)
[12] = target: T1, A56-C-His (recombinant protein A56 with …); assay: ELISA (row 'KD (M) by ELISA')
[13] = target: T1, A56-C-His (recombinant protein A56 with …); assay: ELISA on coated A56 (100 ng), fit; R square 0.9821
[14] = target: T1, A56-C-His (recombinant protein A56 with …); assay: OCTET (row 'KD (M) by OCTET'; the legend calls it SPR)
[15] = target: T1, A56-C-His (recombinant protein A56 with …); assay: ELISA (row 'KD (M) by ELISA')
[16] = target: T1, A56-C-His (recombinant protein A56 with …); assay: ELISA on coated A56 (100 ng), fit; R square 0.9969
[17] = target: T1, A56-C-His (recombinant protein A56 with …); assay: OCTET (row 'KD (M) by OCTET'; the legend calls it SPR)

Binder	Kd [1] [nM]	koff [1] [s⁻¹]	kon [5] [M⁻¹ s⁻¹]	further results
B1	0.438	2.47e-05	56400	Kd [2]: 0.044 nM; Kd [3]: 0.044 nM; Kd [4]: 0.438 nM
B2	0.196	1.96e-05	100000	Kd [6]: 0.026 nM; Kd [7]: 0.026 nM; Kd [8]: 0.196 nM
B3	0.739	8.26e-05	112000	Kd [9]: 0.033 nM; Kd [10]: 0.033 nM; Kd [11]: 0.739 nM
B4	2.28	0.000561	246000	Kd [12]: 0.024 nM; Kd [13]: 0.024 nM; Kd [14]: 0.228 nM
B5	0.492	9.67e-05	196000	Kd [15]: 0.029 nM; Kd [16]: 0.029 nM; Kd [17]: 0.492 nM
